The source of these data is PMC9596381, “GPC3-Unc5 receptor complex structure and role in cell migration” (Cell, 2022).

The target of assay [1] is T1, human glypican-3 core domain, residues 32-483 (hGPC3^core) (human, UniProt P51654 32-483, N-linked glycans at N124 and N241).
T1 construct: human glypican-3 (GPC3), core domain, residues 32-483; Only partly cleaved at the furin-like site (R355-R358); the two fragments stay covalently attached; The forward primer starts at Met1; source: HEK293T or GnTI-deficient HEK293S, transiently transfected, secreted, purified (HisTrap, SEC); not shown: His6, C-terminal, kept
T1 sequence (P51654 32-483): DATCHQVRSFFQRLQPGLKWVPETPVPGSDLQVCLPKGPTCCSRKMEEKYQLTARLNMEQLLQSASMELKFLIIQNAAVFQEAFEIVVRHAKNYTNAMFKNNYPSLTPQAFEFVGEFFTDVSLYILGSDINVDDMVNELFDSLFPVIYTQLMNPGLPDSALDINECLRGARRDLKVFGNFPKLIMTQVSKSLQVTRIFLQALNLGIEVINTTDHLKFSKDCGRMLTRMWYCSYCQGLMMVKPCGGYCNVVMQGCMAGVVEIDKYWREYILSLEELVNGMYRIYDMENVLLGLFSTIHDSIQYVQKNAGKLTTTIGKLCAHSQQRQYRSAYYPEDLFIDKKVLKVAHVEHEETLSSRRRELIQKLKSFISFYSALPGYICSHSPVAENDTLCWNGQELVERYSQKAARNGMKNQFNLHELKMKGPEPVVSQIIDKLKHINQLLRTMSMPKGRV
As to the kind of experiment: SPR; Unc5A-D ectodomains immobilised; hGPC3^core or mGPC3^ecto injected in a 2-fold dilution series (top 4.5 uM) with Fc control protein, Nano^glue or Nano^break kept constant at 9 uM (with hGPC3^core) or 4.5 uM (with mGPC3^ecto). The following applies: both partners purified.

Assay [2] deals with T2, murine GPC3 ectodomain, residues 31-559 (mGPC3^ecto) (mouse, UniProt Q8CFZ4 31-559).
T2 construct: mouse glypican-3 (GPC3), residues 31-559; source: HEK293 cells, purified
T2 sequence (Q8CFZ4 31-559): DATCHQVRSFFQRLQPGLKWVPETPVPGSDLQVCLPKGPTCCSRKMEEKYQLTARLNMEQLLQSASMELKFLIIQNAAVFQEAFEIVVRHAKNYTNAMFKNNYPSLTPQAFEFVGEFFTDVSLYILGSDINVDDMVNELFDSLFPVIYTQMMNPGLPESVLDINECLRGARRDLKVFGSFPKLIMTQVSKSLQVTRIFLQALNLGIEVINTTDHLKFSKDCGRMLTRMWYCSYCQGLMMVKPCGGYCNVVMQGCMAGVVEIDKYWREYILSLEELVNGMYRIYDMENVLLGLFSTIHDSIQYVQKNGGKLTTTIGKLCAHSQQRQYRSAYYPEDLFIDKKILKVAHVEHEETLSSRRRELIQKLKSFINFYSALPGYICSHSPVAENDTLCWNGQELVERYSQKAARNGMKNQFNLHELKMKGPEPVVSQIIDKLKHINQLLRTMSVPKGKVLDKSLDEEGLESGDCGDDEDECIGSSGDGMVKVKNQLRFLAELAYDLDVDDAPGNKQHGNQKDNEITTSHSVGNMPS
The assay is described as above. The following applies: both partners purified.

B1: mouse Unc5A ectodomain, residues 1-359 (mUnc5A^ecto) (domain or fragment)
chain: not shown
modifications: biotin on the Avi-tag
notes: signal peptide in the construct; mouse Unc5A, residues 1-359; source: HEK293 cells, purified; not shown: Avi-tag, C-terminal, kept
In the case of B1, the binding result in assay [1] and in assay [2] was “binds” in each case.
